Test results taken from US20200002439A1.

Experiments:
human TGFβ1 (human) = human TGFβ1 (human) (UniProt P01137)
[1] = biological target: recombinant human Ang2 (human) (UniProt O15123); test: blocking ELISA: Ang2 coated on the plate, binding of recombinant human Tie2 is blocked
[2] = biological target: His tagged human Angiopoietin-2 (human) (UniProt O15123); test: bio-layer interferometry, rhAng2-His
Chain of His tagged human Angiopoietin-2 (human) (O15123 19-496 limits assumed): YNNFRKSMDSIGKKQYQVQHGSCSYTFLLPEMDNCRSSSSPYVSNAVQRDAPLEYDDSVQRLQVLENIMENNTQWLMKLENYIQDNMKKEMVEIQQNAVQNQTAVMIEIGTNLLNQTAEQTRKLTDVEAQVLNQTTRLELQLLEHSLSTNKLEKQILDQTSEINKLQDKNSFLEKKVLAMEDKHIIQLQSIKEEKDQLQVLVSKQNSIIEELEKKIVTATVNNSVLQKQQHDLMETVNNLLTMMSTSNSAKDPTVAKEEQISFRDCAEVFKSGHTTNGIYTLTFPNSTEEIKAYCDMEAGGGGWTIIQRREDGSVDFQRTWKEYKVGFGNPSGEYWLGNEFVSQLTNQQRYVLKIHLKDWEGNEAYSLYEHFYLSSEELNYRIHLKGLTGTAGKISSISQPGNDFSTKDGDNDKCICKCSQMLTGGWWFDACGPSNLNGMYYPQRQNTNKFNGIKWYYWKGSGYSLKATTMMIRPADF

Chain of recombinant human Ang2 (human) (O15123 19-496 limits assumed): as above
Chain of human TGFβ1 (human) (P01137 279-390 limits assumed): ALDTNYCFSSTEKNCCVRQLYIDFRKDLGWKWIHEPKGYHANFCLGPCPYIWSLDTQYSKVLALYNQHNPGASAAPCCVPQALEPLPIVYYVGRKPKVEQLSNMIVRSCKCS

Row | IC50; luciferase signal of TGFβ/SMAD SBE Reporter-HEK293 cells stimulated with human TGFβ1 (human TGFβ1 (human)) [nM] | IC50 [1] [nM] | Kd [2] [nM] | koff [2] [s⁻¹] | kon [2] [M⁻¹ s⁻¹] | Substance
1 | 2.02 |  |  |  |  | TGFβ1 RII-Fc (from UniProt P37173 24-159) (Fc fusion)
2 |  | 0.57 |  |  |  | bevacizumab-trebananib
3 |  | 0.5 | 1.23 | 0.000146 | 119000 | trebananib (Fc fusion)
